B1: Rab5 GDP/GTP exchange factor (Homo sapiens), Q9UJ41 (parent)
chain: MSLKSERRGIHVDQSDLLCKKGCGYYGNPAWQGFCSKCWREEYHKARQKQIQEDWELAERLQREEEEAFASSQSSQGAQSLTFSKFEEKKTNEKTRKVTTVKKFFSASSRVGSKKEIQEAKAPSPSINRQTSIETDRVSKEFIEFLKTFHKTGQEIYKQTKLFLEGMHYKRDLSIEEQSECAQDFYHNVAERMQTRGKVPPERVEKIMDQIEKYIMTRLYKYVFCPETTDDEKKDLAIQKRIRALRWVTPQMLCVPVNEDIPEVSDMVVKAITDIIEMDSKRVPRDKLACITKCSKHIFNAIKITKNEPASADDFLPTLIYIVLKGNPPRLQSNIQYITRFCNPSRLMTGEDGYYFTNLCCAVAFIEKLDAQSLNLSQEDFDRYMSGQTSPRKQEAESWSPDACLGVKQMYKNLDLLSQLNERQERIMNEAKKLEKDLIDWTDGIAREVQDIVEKYPLEIKPPNQPLAAIDSENVENDKLPPPLQPQVYAG

Variants of: B1
Details: with eea1_human EEA1, Q15075
Sequence of eea1_human EEA1, Q15075 (Q15075 whole entry): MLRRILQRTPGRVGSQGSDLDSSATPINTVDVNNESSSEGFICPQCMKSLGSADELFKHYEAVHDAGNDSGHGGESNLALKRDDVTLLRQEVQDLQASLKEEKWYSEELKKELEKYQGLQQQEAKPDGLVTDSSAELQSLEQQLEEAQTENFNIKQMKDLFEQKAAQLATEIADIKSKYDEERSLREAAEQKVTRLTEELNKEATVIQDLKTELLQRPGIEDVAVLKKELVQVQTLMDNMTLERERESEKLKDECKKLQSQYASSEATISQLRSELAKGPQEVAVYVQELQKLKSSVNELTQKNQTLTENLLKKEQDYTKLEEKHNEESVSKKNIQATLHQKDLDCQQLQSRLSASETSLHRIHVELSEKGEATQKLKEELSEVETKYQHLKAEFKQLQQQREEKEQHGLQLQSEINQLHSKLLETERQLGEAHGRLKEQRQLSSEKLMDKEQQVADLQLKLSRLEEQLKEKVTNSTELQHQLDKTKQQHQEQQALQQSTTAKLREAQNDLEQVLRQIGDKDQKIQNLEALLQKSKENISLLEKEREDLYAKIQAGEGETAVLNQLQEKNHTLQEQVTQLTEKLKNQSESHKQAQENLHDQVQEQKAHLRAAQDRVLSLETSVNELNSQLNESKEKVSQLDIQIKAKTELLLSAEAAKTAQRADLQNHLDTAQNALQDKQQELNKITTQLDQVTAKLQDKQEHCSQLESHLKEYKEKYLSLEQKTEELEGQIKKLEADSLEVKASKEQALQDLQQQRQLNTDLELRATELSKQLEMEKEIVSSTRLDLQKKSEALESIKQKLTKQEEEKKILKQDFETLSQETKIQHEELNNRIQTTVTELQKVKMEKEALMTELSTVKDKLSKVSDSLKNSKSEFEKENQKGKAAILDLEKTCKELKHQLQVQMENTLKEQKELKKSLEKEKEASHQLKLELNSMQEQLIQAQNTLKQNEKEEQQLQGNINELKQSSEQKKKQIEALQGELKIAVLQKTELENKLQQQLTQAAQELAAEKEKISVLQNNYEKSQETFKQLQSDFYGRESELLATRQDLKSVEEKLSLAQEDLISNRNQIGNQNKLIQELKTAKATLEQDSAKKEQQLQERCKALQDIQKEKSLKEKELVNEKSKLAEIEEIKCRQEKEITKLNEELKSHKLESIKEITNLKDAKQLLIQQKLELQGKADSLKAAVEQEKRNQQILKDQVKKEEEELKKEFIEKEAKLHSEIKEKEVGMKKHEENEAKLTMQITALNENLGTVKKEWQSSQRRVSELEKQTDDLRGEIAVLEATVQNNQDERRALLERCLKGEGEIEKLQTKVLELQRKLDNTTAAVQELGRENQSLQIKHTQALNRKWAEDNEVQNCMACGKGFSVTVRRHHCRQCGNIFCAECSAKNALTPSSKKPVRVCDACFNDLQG

Variant	effect of a mutation on the interaction
Q79L	increasing interaction

— IntAct's records for PubMed 21685908
